B1: TPR t1 (parent)
chain: GACCAAUCUGCCCUCAGAGCUCGAGAACAUCUUCGGAUGCAGAGGAGGCAGGCUUCGGUGGCGCGAUAGCGCCAACGUCCUCAACCUCCAAUGCAUCCCACCACAUGAUGAUGCCUGAAGAGCCUUGGUUUUUUG

Variants of: B1
Assay: polymerase ribozyme fitness, log enrichment relative to wild type (log ratio); higher = more active; in vitro selection for triplet polymerase activity
In short: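 A heterodimeric triplet polymerase ribozyme had each of its subunits mutagenized by PCR into a library, which was transcribed. One round of in vitro selection, done in triplicate, annealed each library with a biotinylated primer, its partner subunit and triplets, then incubated it frozen at −7 °C before gel excision of extended constructs, streptavidin-bead capture and RT-PCR. Fitness is the logarithm of genotype enrichment relative to wild-type enrichment, based on Illumina sequencing of inputs and outputs and inverse-variance-weighted replicate averages. A base-2 logarithm is used, and genotypes were kept only with ≥10 input reads and ≥1 read per output.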

In order of rising “polymerase ribozyme fitness (log ratio)” value:
1. C73A U78C A90C A91U U109G  -7.04
2. A74U G77U C98U C102G  -6.8
3. A74U U96A A100U G113U  -6.78
4. C80U A103C  -6.57
5. G77A A83U A84C C86A C101U G117C  -6.46
6. C79U C94G A100C G117C  -6.32
7. U78C A103G U109A C114A A119C  -6.28
8. C73G C97G C114A A121G  -5.74
9. U81A C94U G117A C123G  -5.66
10. C76A C99U G120U  -5.6
11. C80A G93A C124A G128A  -5.36
12. G77C U87A G93C A105U C115A  -5.31
13. C80A C86G  -5.2
14. U78A G93A C97A A121C  -5.11
15. C79U U109G  -5.09
16. C73A C98A  -4.94
17. C79U C98A  -4.92
18. G77A C82A U109A  -4.87
19. C80A G113U  -4.78
20. C80G U87G C88A U112A  -4.77
21. C79A U87C G113U  -4.71
22. C73G U87A G122A  -4.5
23. U78A U109C  -4.47
24. C79G C89U A91C  -4.46
25. C76U C89G C98U  -4.45
26. A74C G110C  -4.36
27. C73U U109G  -4.33
28. U78A C79A A95C  -4.32
29. U78G C97G  -4.29
30. C73U A103G  -4.17
31. C76A C115U U129A  -4.13
32. A74U U109C  -4.13
33. C73U C86A C97U C102U  -4.11
34. C79G C115G  -4.07
35. U81G C88U  -4.05
36. C79A C89A A118G  -3.86
37. U81G  -3.8
38. C80G A121U  -3.78
39. A74U C88U U116A  -3.69
40. C73U C94U G113U  -3.64
41. C73U U109C  -3.63
42. C79A U81C C89U G93U G120C C124U  -3.62
43. U78C A84C U96G U116G  -3.6
44. C79A A83U  -3.6
45. U81C C85U A118G G122U C124U U129A  -3.58
46. C73G U96G C115G  -3.54
47. U78C A84G G128A  -3.53
48. C79U G113A C123U U129C  -3.48
49. C79A C89A  -3.43
50. C79A U112A G128U  -3.42
51. A74U U112A G113C A118C G135U  -3.34
52. C76U U92G  -3.28
53. A74C A90C C101G  -3.22
54. C73U C82U A91U A100U  -3.21
55. U78C C80U C99U A121G  -3.12
56. U81C C86U U116G  -3.1
57. U78C U92A  -3.1
58. A75U A95C U116C U125C  -3.04
59. C79U A111U  -3.01
60. C73U G117C  -2.95
61. C79A U81C G120U G135C  -2.91
62. C76A C115U  -2.9
63. C79U C94A C99U A121G  -2.9
64. U78G C97A  -2.84
65. C73G G113U  -2.74
66. U78C A111G G117A  -2.7
67. C73G C94A  -2.58
68. C79A G127U  -2.57
69. C76A C89U U129A  -2.51
70. C79U A91U  -2.48
71. C79U A118C  -2.46
72. A74G G117U  -2.41
73. U78A A95G C102A  -2.41
74. C73A U109C  -2.34
75. C73G A90C  -2.17
76. C79A C115A  -2.1
77. G77A G120A G128C  -2.08
78. C73A C102A  -2.07
79. U78C G113A G135U  -2.01
80. C73G C94G  -1.94
81. C80U C114A  -1.85
82. A74U C104A  -1.82
83. U81C C82A  -1.8
84. U78C U92C U96C U106A  -1.75
85. C73U A91C  -1.74
86. U78C C114A  -1.63
87. A75C G77C  -1.58
88. C73U C102A  -1.58
89. C73U C115G U132A  -1.49
90. U78C G135A  -1.44
91. C73U G117U  -1.43
92. U78A C94U C115A G127C  -1.41
93. C79U C89A G117U C123G  -1.41
94. A74G C89G  -1.41
95. C80U G110A  -1.21
96. G77U U125A  -1.21
97. A74C G110A  -1.2
98. C73A C104A U116G C124A  -1.19
99. U78C U81G G120C  -1.18
100. A74U C80U  -1.18
101. C80U G117A U133G  -1.17
102. G77A C82G  -1.13
103. C73G C97U A118U  -1.07
104. G77U U96A  -1.04
105. U81A  -1.01
106. C73A C101A  -1
107. C79U G135U  -0.964
108. C73A G93C  -0.962
109. U78C U131C  -0.936
110. U78C U130G  -0.922
111. U78G C94G  -0.85
112. C73G C80U C123G  -0.835
113. A74U C86U  -0.818
114. C79G G120A  -0.791
115. C76A C79G  -0.726
116. A74U G128U U130C  -0.708
117. A75G C94A  -0.695
118. C73A G122A  -0.64
119. C76A  -0.611
120. U78C A83U  -0.61
121. G77U C79U U106C  -0.595
122. A75C  -0.585
123. A74C G93A  -0.578
124. A74C A90U  -0.572
125. C73G C82U  -0.556
126. G77C G93A  -0.532
127. U78C C88A  -0.513
128. C73U C115A  -0.495
129. A75U  -0.493
130. C73U A119U  -0.348
131. A74U C94U  -0.301
132. A74G U96G  -0.295
133. A74U G93A C123A  -0.279
134. U81C  -0.208
135. C76G  -0.207
136. C80U A111G  -0.196
137. C73U U106C  -0.194
138. C76U  -0.164
139. C76A C123G  -0.164
140. U78A A111C  -0.127
141. C79U C88U  -0.115
142. G77U C79U U106A  -0.0765
143. G77C A90G A111G  -0.0361
144. A74C G120U  0.00369
145. U78C A95C C123A  0.0148
146. C79U G120U  0.0692
147. A75G  0.101
148. C73A U132A  0.117
149. C76U C82A G120A  0.131
150. C76U C123A  0.138
151. C73A A118G  0.164
152. A74C G120A U132G U134A  0.272
153. A75U C86U C88U  0.294
154. G77A U112G  0.316
155. G77A C79U G120U C123A  0.335
156. A74U U87G  0.353
157. U78C A111C  0.402
158. G77A U112A  0.751
159. U78G C123U  0.876
160. A74G C94U  0.88
161. U78A U112A  1.06
162. C73U A119G  1.13
163. C80U C101U A121C  1.19
164. C76G G93A C124G  1.31
165. A74C G120C  1.48
166. U78A C124U U125A U133C  1.84
167. G77A A121U  1.88

Reference: the RNAGym collection of RNA variant scans (doi:10.1073/pnas.2313332121)
